Consider 33 molecules from US20230071371A1 (Scripps Research, published 2023).

The assay has as its target T1, GPR10 (UniProt P49683 1-370, limits assumed).
T1 sequence (looked up): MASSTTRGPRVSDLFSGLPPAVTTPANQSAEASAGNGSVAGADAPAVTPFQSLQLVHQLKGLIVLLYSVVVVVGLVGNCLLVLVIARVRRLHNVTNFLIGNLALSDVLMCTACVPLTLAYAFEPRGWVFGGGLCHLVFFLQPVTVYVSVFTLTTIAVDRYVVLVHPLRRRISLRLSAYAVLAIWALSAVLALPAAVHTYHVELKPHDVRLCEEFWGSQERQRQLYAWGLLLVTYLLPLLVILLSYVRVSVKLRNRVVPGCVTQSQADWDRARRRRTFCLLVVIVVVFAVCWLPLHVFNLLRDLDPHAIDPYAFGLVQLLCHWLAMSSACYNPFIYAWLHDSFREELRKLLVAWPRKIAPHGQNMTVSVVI
Description: cell-based or functional assay.

Bridges are numbered along the chain shown (N, C = ends). Where no end group is shown, it is not given here. L1 = not defined here; L3 = not defined here; L4 = not defined here; L5 = not defined here Bounds are passed on as bounds.

B1: Conjugate 213 (peptide)
peptide: TCDINPAWCTGRGIRPVGRF-NH2
modifications: linker 2-9 via L3; reading uncertain
Regarding B1, the “GPR10 EC50” value was 33 nM.

B2: Conjugate 222 (peptide)
peptide: TPDINPCWYTGRGCRPVGRF-NH2
modifications: linker 7-14 via L3; reading uncertain
In the case of B2, the “GPR10 EC50” value amounted to 5.2 nM.

B3: Conjugate 218 (peptide)
peptide: TPDCNPAWYTCRGIRPVGRF-NH2
modifications: linker 4-11 via L5; reading uncertain
Consider B3, for which the “GPR10 EC50” value came out at 81 nM.

B4: SEQ ID NO 83 (peptide)
peptide: TPDICPAWYTGCGIRPVGRF-NH2
modifications: cysteine pairing not given here
As to B4, the “GPR10 EC50” value worked out at 44 nM.

B5: Conjugate 221 (peptide)
peptide: TPDICPAWYTGCGIRPVGRF-NH2
modifications: linker 5-12 via L5; reading uncertain
As for B5, the “GPR10 EC50” value was 840 nM.

B6: SEQ ID NO 89 (peptide)
peptide: CRAHQHSCETRTPDINPAWYTGRGIRPVGRF-NH2
modifications: cysteine pairing not given here
For the molecule B6, the “GPR10 EC50” value worked out at 16 nM.

B7: Conjugate 224 (peptide)
peptide: TPDINPCWYTGRGCRPVGRF-NH2
modifications: linker 7-14 via L5; reading uncertain
Consider B7, for which the “GPR10 EC50” value is above 1000 nM.

B8: Conjugate 204 (peptide)
peptide: TCDINPAWCTGRGIRPVGRF-NH2
modifications: linker 2-9 via L1; reading uncertain
In the case of B8, the “GPR10 EC50” value amounted to 12 nM.

B9: Conjugate 211 (peptide)
peptide: TPDINPAWCTGRGIRCVGRF-NH2
modifications: linker 9-16 via L1; reading uncertain
For B9, the “GPR10 EC50” value was determined as 160 nM.

B10: SEQ ID NO 105 (peptide)
peptide: TPDCNPAWYTCRGIRPVGRF-NH2
modifications: cysteine pairing not given here
Turning to B10, the “GPR10 EC50” value was found to be 10 nM.

B11: Conjugate 217 (peptide)
peptide: TPDCNPAWYTCRGIRPVGRF-NH2
modifications: linker 4-11 via L4; reading uncertain
B11: the “GPR10 EC50” value amounted to 77 nM.

B12: SEQ ID NO 84 (peptide)
peptide: TPDINCAWYTGRCIRPVGRF-NH2
modifications: cysteine pairing not given here
Take B12: the “GPR10 EC50” value came to 18 nM.

B13: Conjugate 212 (peptide)
peptide: TPDINPAWYCGRGIRPCGRF-NH2
modifications: linker 10-17 via L1; reading uncertain
In the case of B13, the “GPR10 EC50” value was above 10000 nM.

B14: Conjugate 209 (peptide)
peptide: TPDINPCWYTGRGCRPVGRF-NH2
modifications: linker 7-14 via L1; reading uncertain
Regarding B14, the “GPR10 EC50” value turned out to be 10 nM.

B15: Conjugate 205 (peptide)
peptide: TPCINPAWYCGRGIRPVGRF-NH2
modifications: linker 3-10 via L1; reading uncertain
Regarding B15, the “GPR10 EC50” value was found to be 21 nM.

B16: SEQ ID NO 85 (peptide)
peptide: TPDINPCWYTGRGCRPVGRF-NH2
modifications: cysteine pairing not given here
Turning to B16, the “GPR10 EC50” value was found to be 33 nM.

B17: Conjugate 207 (peptide)
peptide: TPDICPAWYTGCGIRPVGRF-NH2
modifications: linker 5-12 via L1; reading uncertain
For the molecule B17, the “GPR10 EC50” value worked out at 13 nM.

B18: Conjugate 223 (peptide)
peptide: TPDINPCWYTGRGCRPVGRF-NH2
modifications: linker 7-14 via L4; reading uncertain
For B18, the “GPR10 EC50” value is above 1000 nM.

B19: SEQ ID NO 103 (peptide)
peptide: TCDINPAWCTGRGIRPVGRF-NH2
modifications: cysteine pairing not given here
For B19, the “GPR10 EC50” value came to 33 nM.

B20: SEQ ID NO 106 (peptide)
peptide: TPDINPAWYTGRGIRPVGRF-NH2
With B20, the “GPR10 EC50” value was found to be 13 nM.

B21: Conjugate 215 (peptide)
peptide: TCDINPAWCTGRGIRPVGRF-NH2
modifications: linker 2-9 via L5; reading uncertain
As for B21, the “GPR10 EC50” value came to 620 nM.

B22: Conjugate 206 (peptide)
peptide: TPDCNPAWYTCRGIRPVGRF-NH2
modifications: linker 4-11 via L1; reading uncertain
Turning to B22, the “GPR10 EC50” value was determined as 7.3 nM.

B23: Conjugate 210 (peptide)
peptide: TPDINPACYTGRGICPVGRF-NH2
modifications: linker 8-15 via L1; reading uncertain
Consider B23, for which the “GPR10 EC50” value was 720 nM.

B24: Conjugate 219 (peptide)
peptide: TPDICPAWYTGCGIRPVGRF-NH2
modifications: linker 5-12 via L3; reading uncertain
In the case of B24, the “GPR10 EC50” value is 25 nM.

B25: SEQ ID NO 104 (peptide)
peptide: TPCINPAWYCGRGIRPVGRF-NH2
modifications: cysteine pairing not given here
Regarding B25, the “GPR10 EC50” value amounted to 16 nM.

B26: Conjugate 225 (peptide)
peptide: CRAHQHSCETRTPDINPAWYTGRGIRPVGRF-NH2
modifications: linker 1-8 via L1; reading uncertain
Take B26: the “GPR10 EC50” value amounted to 24 nM.

B27: Conjugate 214 (peptide)
peptide: TCDINPAWCTGRGIRPVGRF-NH2
modifications: linker 2-9 via L4; reading uncertain
Turning to B27, the “GPR10 EC50” value stood at 230 nM.

B28: Conjugate 216 (peptide)
peptide: TPDCNPAWYTCRGIRPVGRF-NH2
modifications: linker 4-11 via L3; reading uncertain
Turning to B28, the “GPR10 EC50” value was 3.9 nM.

B29: Conjugate 208 (peptide)
peptide: TPDINCAWYTGRCIRPVGRF-NH2
modifications: linker 6-13 via L1; reading uncertain
For B29, the “GPR10 EC50” value was determined as 15 nM.

B30: SEQ ID NO 87 (peptide)
peptide: TPDINPAWCTGRGIRCVGRF-NH2
modifications: cysteine pairing not given here
For B30, the “GPR10 EC50” value stood at 120 nM.

B31: SEQ ID NO 88 (peptide)
peptide: TPDINPAWYCGRGIRPCGRF-NH2
modifications: cysteine pairing not given here
Turning to B31, the “GPR10 EC50” value was 1600 nM.

B32: SEQ ID NO 86 (peptide)
peptide: TPDINPACYTGRGICPVGRF-NH2
modifications: cysteine pairing not given here
For B32, the “GPR10 EC50” value turned out to be 6800 nM.

B33: Conjugate 220 (peptide)
peptide: TPDICPAWYTGCGIRPVGRF-NH2
modifications: linker 5-12 via L4; reading uncertain
As for B33, the “GPR10 EC50” value came to 610 nM.
